Key:
[1] = target: Murine GP130 ectodomain with C-terminal biotin acceptor peptide, biotinylated (murine) (UniProt Q00560); experiment: SPR
[2] = target: Murine IL-27Rα ectodomain (amino acids 28-224), N-terminally biotinylated (murine) (UniProt O70394); experiment: SPR
Sequence of Murine IL-27Rα ectodomain (amino acids 28-224), N-terminally biotinylated (murine) (O70394 28-224): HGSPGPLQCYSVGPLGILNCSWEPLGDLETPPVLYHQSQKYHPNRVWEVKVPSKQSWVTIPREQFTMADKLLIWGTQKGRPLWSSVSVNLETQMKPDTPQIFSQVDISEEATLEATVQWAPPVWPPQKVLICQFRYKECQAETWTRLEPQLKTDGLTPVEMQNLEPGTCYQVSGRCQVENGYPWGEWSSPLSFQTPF

Sequence of Murine GP130 ectodomain with C-terminal biotin acceptor peptide, biotinylated (murine) (Q00560 23-319): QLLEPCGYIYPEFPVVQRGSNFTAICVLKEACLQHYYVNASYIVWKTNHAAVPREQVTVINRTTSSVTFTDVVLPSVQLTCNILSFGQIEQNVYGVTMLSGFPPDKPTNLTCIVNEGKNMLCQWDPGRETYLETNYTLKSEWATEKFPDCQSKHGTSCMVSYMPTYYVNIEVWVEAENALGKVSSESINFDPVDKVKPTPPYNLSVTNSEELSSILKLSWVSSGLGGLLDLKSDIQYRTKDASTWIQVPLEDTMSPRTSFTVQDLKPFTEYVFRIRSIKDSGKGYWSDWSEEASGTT

In the case of “Murine IL-27, linker-connected single-chain variant (p28+EBI3) (ligand)”, the Kd [1] is reported as 3.1 nM and the Kd [2] is reported as 0.29 nM.
